Source: patent US20250109203A1

Tests used:
[1] = molecular target: human γδ TCR (Vγ9Vδ2) on human Vδ2+ γδ T cells (human) (UniProt A0JD36); assay: flow cytometry on zoledronate-expanded human γδ T cells gated Vδ2+, anti-VHH Alexa647, MdFI
[2] = molecular target: human γδ TCR (Vγ9Vδ2) on human Vδ2+ γδ T cells (human) (UniProt A0JD36); assay: flow cytometry, monomeric VHH-hIgG1 Fc fusion on expanded human Vδ2+ γδ T cells, anti-human Fc A647, MFI
[3] = molecular target: human γδ TCR (Vγ9Vδ2) on human Vδ2+ γδ T cells (human) (UniProt A0JD36); assay: as above; remark: listed apart in the source
[4] = molecular target: human γδ TCR (Vγ9Vδ2) on human Vδ2+ γδ T cells (human) (UniProt A0JD36); assay: flow cytometry on expanded human Vδ2+ γδ T cells, nonlinear fit; from data in FIG. 6K
[5] = molecular target: human γδ TCR (Vγ9Vδ2) on human Vδ2+ γδ T cells (human) (UniProt A0JD36); assay: flow cytometry on expanded human Vδ2+ γδ T cells, nonlinear fit; from data in FIG. 6J
[6] = molecular target: human γδ TCR (Vγ9Vδ2) on human Vδ2+ γδ T cells (human) (UniProt A0JD36); assay: flow cytometry on expanded human Vδ2+ γδ T cells, nonlinear fit
[7] = molecular target: cynomolgus monkey γδ TCR on cynomolgus Vγ9+ γδ T cells (cynomolgus monkey); assay: flow cytometry on expanded cynomolgus γδ T cells gated Vγ9+, anti-human Fcγ A647, MdFI

Row | EC50 (read off the curve) [3] [nM] | Kd [6] [nM] | Binder | also measured
1 | 60 | 126 | hu1D7v86 VHH-hIgG1 Fc-NNT (monomeric) (VHH) VHH: EVQLLESGGGEVQPGGSLRLSCVASRGKISQYRMGWYRQAPGKERELVAHISNTGDAAEYVGGVKDRFTISRDSTKNALYLQMSSLRAEDTAVYKCNSVEDILAWGQGTLVTVRP | 
2 | 30 | 108 | hu1D7v5 VHH-hIgG1 Fc-NNT (monomeric) (VHH) VHH: EVQLLESGGGEVQPGGSLRLSCVASRGTISQYRMGWYRQAPGKGLEWVAHISNTGDAAEYVDSVKGRFTISRDSTKNAVYLQMSSLRAEDTAVYKCNSVEDILAWGQGTLVTVKP | 

The remaining lines, values behind:

Row | Binder | EC50 (read off the curve) [3] [nM] | Kd [6] [nM] | also measured
3 | 1D7×HSA×IL-2_X (anti-γδTCR-1D7 VHH - anti-HSA VHH - IL-2_X) (protein, part only; not given: anti-albumin VHH and linkers, part only) chain, part: QVQLVQSGGGLVQPGGSLRLSCVASRGKISQYRMGWYRQAPGKQRELVAHISNTGDAAEYVDSVKGRFTISRDSTKNAVYLQMNSLKPEDTAVYKCNSVEDILAWGQGTQVTVKPAPASSSTKKTQLQLEALLLDLQMILNGINNYKNPKLTRMLTFKFYMPKKATELKHLQCLERELKRLEEVLNLAQSKNFHLRPRYLISNINVIVLELKGSETTFMCEYADETATIVEFLNRWITFSQSIISTLT |  |  | EC50 (read off the curve) [1]: 5 nM
4 | 1D7v158×HSA×IL-2_X (h1D7v158 VHH - anti-HSA VHH - IL-2_X) (protein, part only; not given: anti-albumin VHH and linkers, part only) chain, part: EVQLLESGGGEVQPGGSLRLSCVASRGKISQYRMGWYRQAPGKQRELVAHISNTGDAAEYVAPVKGRFTISRDNAKNALYLQMNSLRAEDTAVYKCNTVEDILAWGQGTLVTVEPAPASSSTKKTQLQLEALLLDLQMILNGINNYKNPKLTRMLTFKFYMPKKATELKHLQCLERELKRLEEVLNLAQSKNFHLRPRYLISNINVIVLELKGSETTFMCEYADETATIVEFLNRWITFSQSIISTLT |  |  | EC50 (read off the curve) [1]: 4 nM
5 | hu1D7v158 VHH-hIgG1 Fc-NNT (monomeric) (VHH) VHH: EVQLLESGGGEVQPGGSLRLSCVASRGKISQYRMGWYRQAPGKQRELVAHISNTGDAAEYVAPVKGRFTISRDNAKNALYLQMNSLRAEDTAVYKCNTVEDILAWGQGTLVTVEP | 6 |  | EC50 (read off the curve) [2]: 3 nM; Kd [4]: 2.96 nM; Kd [5]: 6.54 nM
6 | hu1D7v85 VHH-hIgG1 Fc-NNT (monomeric) (VHH) VHH: EVQLLESGGGEVQPGGSLRLSCVASRGKISQYRMGWYRQAPGKERELVAHISNTGDAAEYVSGVKDRFTISRDSTKNALYLQMSSLRAEDTAVYKCNSVEDILAWGQGTLVTVRP | 70 | 168 | 
7 | hu1D7v99 VHH-hIgG1 Fc-NNT (monomeric) (VHH) VHH: EVQLLESGGGEVQPGGSLRLSCVASRGKISQYRMGWYRQAPGKERELVAHISNTGDAAEYVSSVKDRFTISRDSTKNALYLQMSSLRAEDTAVYKCNSVEDILAWGQGTLVTVRP | 60 | 116 | 
8 | bivalent 1D7 VHH-human IgG1 Fc xELL fusion (VHH) VHH: QVQLVQSGGGLVQPGGSLRLSCVASRGKISQYRMGWYRQAPGKQRELVAHISNTGDAAEYVDSVKGRFTISRDSTKNAVYLQMNSLKPEDTAVYKCNSVEDILAWGQGTQVTVKP |  |  | EC50 (read off the curve) [7]: 0.3 nM
